Assay results taken from PMC11797554 (2024).

Columns and labels:
SCRM KiDoK peptide [1] = target: T1, SCRM KiDoK peptide (Arabidopsis, UniProt Q9LSE2, biotin); test: BLI; in presence of kC9
SCRM KiDoK peptide [2] = target: T1, SCRM KiDoK peptide; test: BLI; in presence of kC9; kinetic fit
SCRM KiDoK peptide [3] = target: T1, SCRM KiDoK peptide; test: BLI

koff (SCRM KiDoK peptide [1]): 0.0178 s⁻¹ | Kd (SCRM KiDoK peptide [2]): 1050 nM | koff (SCRM KiDoK peptide [3]): 0.0327 s⁻¹
B1: MPK6ΔNt (29 to 305) (domain or fragment)
chain: QMPGIENIPATLSHGGRFIQYNIFGNIFEVTAKYKPPIMPIGKGAYGIVCSAMNSETNESVAIKKIANAFDNKIDAKRTLREIKLLRHMDHENIVAIRDIIPPPLRNAFNDVYIAYELMDTDLHQIIRSNQALSEEHCQYFLYQILRGLKYIHSANVLHRDLKPSNLLLNANCDLKICDFGLARVTSESDFMTEYVVTRWYRAPELLLNSSDYTAAIDVWSVGCIFMELMDRKPLFPGRDHVHQLRLLMELIGTPSEEELEFLNENAKRYIRQLPPYPRQSITDKFPTVHPLAIDLIEKMLTFDPRRRITVLDALAHPYLNSLHDISDEPECTIPFNFDFENHALSEEQMKELIYREALAFNPEYQQ
